Source: PMC12888917, “Structure-based engineering of the midnolin-proteasome pathway for targeted protein degradation” (Protein & Cell, 2025)

Molecular target: T1, full-length RPN1 (UniProt Q13200 1-908)
T1 construct: RPN1, full length, as isolated protein in the BLI assay
Assay: BLI; full-length RPN1 and GST-tagged midnolin C-Helix (375–413)
Conditions: both partners purified

T1 sequence (Q13200 whole entry): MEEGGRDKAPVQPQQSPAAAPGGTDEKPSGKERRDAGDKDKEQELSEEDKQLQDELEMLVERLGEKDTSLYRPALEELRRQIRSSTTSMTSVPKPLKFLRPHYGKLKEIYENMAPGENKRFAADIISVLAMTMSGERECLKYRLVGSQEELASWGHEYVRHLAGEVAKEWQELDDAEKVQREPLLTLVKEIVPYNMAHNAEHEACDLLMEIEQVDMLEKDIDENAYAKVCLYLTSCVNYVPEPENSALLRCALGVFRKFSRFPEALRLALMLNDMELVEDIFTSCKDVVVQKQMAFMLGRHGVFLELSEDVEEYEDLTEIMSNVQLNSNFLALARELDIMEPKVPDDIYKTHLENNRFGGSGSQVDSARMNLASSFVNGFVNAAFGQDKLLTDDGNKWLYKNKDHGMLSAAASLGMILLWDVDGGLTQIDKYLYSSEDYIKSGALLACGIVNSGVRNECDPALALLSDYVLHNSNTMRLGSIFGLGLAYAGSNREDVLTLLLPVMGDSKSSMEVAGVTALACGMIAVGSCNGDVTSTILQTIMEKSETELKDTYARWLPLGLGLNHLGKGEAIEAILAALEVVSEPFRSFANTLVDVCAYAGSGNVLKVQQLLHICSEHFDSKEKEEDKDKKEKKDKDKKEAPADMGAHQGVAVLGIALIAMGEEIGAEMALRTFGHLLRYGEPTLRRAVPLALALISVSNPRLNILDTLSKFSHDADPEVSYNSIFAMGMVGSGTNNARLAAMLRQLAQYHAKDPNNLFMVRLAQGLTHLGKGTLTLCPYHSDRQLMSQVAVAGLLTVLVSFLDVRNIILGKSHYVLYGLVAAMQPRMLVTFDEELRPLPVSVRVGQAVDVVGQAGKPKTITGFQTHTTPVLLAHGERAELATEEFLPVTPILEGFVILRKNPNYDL

Binder: PPGDRLRQTENRATRCKVERLQLLLQQKRLRRKARRDAR (domain or fragment, human, UniProt Q504T8 375-413, looked up, also called MIDN C-Helix) [GST-tagged midnolin C-Helix (375–413)]
- Kd: ~88.5 nM
